# Results published in patent publication US20190075806.
# B1: proteinase B derived from Kluyveromyces lactis (mature enzyme) (protein)
# chain: SFNTQNSAPWGLARISHREKLNLGSFNKYLYDDDAGKGVTAYVVDTGVNVNHKDFDGRAVWGKTIPKDDPDVDGNGHGTHCAGTIGSVHYGVAKNADIVAVKVLRSNGSGTMSDVVKGVEYVAEAHKKAVEEQKKGFKGSTANMSLGGGKSPALDLAVNAAVKAGVHFAVAAGNENQDACNTSPAAAENAITVGASTLSDERAYFSNWGKCVDIFGPGLNILSTYIGSDTATATLSGTSMATPHVVGLLTYFLSLQPDADSEYFHAAGGITPSQLKKKLIDFSTKNVLSDLPEDTVNY
# How the values were obtained:
# [1] = target: neutral lactase (GODO-YNL2; unfragmented high molecular fraction F-1, about 120 kDa), P00723
# Chain of neutral lactase (GODO-YNL2; unfragmented high molecular fraction F-1, about 120 kDa), P00723 (P00723 whole entry, the tested form may be a part): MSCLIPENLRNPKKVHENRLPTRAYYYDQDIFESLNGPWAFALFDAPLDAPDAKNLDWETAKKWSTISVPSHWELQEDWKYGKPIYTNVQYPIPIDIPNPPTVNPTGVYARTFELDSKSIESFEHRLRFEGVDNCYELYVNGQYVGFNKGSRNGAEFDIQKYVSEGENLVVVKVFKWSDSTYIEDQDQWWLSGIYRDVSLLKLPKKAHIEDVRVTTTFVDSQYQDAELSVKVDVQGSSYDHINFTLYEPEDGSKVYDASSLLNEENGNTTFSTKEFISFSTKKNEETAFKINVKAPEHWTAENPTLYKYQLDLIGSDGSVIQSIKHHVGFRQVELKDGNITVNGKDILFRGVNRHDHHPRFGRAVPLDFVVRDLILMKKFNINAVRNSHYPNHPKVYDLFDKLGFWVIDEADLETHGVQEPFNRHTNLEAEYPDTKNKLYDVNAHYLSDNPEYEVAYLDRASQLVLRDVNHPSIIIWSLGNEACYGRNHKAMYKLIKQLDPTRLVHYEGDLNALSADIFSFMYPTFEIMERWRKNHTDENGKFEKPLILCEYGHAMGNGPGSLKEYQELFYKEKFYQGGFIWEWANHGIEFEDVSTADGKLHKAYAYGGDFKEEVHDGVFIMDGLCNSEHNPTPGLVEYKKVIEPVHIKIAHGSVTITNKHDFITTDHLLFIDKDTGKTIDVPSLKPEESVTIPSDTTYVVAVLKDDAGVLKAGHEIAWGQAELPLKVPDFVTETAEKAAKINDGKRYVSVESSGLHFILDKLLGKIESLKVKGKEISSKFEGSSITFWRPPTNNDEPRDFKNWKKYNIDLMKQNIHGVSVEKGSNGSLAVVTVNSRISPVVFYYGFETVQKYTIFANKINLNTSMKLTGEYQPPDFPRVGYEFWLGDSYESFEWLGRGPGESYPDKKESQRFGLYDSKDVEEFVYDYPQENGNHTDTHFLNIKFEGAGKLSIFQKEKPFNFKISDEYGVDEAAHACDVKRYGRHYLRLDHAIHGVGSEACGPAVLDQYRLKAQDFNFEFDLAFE
# Chain of BSA, P02769 (P02769 25-607): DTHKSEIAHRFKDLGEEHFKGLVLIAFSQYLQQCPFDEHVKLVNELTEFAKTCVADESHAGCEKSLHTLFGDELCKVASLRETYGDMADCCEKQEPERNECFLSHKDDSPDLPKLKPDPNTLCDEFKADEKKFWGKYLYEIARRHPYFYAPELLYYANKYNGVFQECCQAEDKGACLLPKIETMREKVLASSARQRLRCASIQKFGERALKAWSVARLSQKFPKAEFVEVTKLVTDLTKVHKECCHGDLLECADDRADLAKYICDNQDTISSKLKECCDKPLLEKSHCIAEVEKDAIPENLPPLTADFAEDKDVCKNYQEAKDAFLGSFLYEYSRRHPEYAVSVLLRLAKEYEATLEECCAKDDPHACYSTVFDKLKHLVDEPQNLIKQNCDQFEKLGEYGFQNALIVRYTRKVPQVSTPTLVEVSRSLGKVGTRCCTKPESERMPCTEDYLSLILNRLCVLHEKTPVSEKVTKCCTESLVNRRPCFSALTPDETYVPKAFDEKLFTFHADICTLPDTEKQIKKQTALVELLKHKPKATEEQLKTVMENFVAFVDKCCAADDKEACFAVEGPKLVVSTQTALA
protein,measurement,setting,value
B1,"SUBSTRATE SPECIFICITY (relative protease activity, K. lactis PrB)",Azocasein,1
same,"SUBSTRATE SPECIFICITY (relative protease activity, K. lactis PrB)",Azocoll,1.9
same,"SUBSTRATE SPECIFICITY (relative protease activity, K. lactis PrB)","BSA, P02769",0
same,"SUBSTRATE SPECIFICITY (relative protease activity, K. lactis PrB)",Casein,0
same,"SUBSTRATE SPECIFICITY (relative protease activity, K. lactis PrB)",FITC-casein,78
same,"SUBSTRATE SPECIFICITY (relative protease activity, K. lactis PrB)",[1],1160
